Measured values as given in patent publication US6436691B1, “Chemical compounds” (Zeneca Limited, priority 1995, dated 2002).
Numbering of substitutions follows the chain as printed. Names and notes keep the numbering of the source.

Tests used:
[1] = Conversion of Hipp-Glu by periplasmic shockate of HCPB mutants, 24 h (Example 18); assay type: biochemical; conditions: shockate concentration in reaction mixture 50 %; 24 h at 37° C.
[2] = Conversion of Hipp-Asp to hippuric acid by mutant and native human CPB, HPLC assay (Example 6); assay type: biochemical; conditions: 5 hr at 37° C.; 4 μg enzyme; 0.5 mM substrate
Experimental: (§1) Purified mutants of human CPB (D253K and D253R; Examples 1-3) and native human CPB, produced as described in Reference Example 12, were assayed for their ability to convert either hippuryl-L-aspartic acid (Hipp-Asp—Reference Example 2), hippuryl-L-glutamic acid (Hipp-Glu—Reference Example 1) or hippuryl-L-arginine (Sigma Chemical Company—cat no. H6625) to hippuric acid using a HPLC based assay.
(§2) The reaction mixture (250 μl) contained 4 μg human CPB (native or mutant) and 0.5 mM Hipp-Asp or Hipp-Glu in 0.025 M Tris-HCL, pH 7.5. Samples were incubated for 5 hr at 37° C. The reactions were terminated by the addition of 250 μl of 80% methanol, 20% distilled water, 0.2% trifluoro acetic acid and the amount of hippuric acid generated was quantified by HPLC.
(§3) HPLC analysis was carried out using a Hewlett Packard 1090 Series 11 (with diode array) HPLC system. Samples (50 μl) were injected onto a Hichrom Hi-RPB column (25 cm) and separated using a mobile phase of 40% methanol, 60% distilled water, 0.1% trifluoro acetic acid at a flow rate of 1 ml/min. The amount of product (hippuric acid) produced was determined from calibration curves generated with known amounts of hippuric acid (Sigma-H6375). The results are shown in Table 1 and are expressed as the percentage conversion of substrate into product in 5 hr at 37° C. with 4 μg enzyme.

[3] = Conversion of Hipp-Arg by purified HCPB mutants, 30 minutes, HPLC (Example 17); assay type: biochemical; conditions: 0.5 mM substrate, 30 minutes at 37° C.
Method in brief: (§4)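 Purified human CPB mutants were incubated with hippuryl-L-Arg, -Glu or -Asp for 30 min at 37 °C, then stopped with acidic aqueous methanol. Hippuric acid was quantified by HPLC (20% methanol/50 mM phosphate pH 6.5, 230 nm). Values are % substrate converted to hippuric acid in 30 min.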

[4] = Conversion of glutamic acid prodrug to intermediate by mutant and native HCPB, HPLC assay (Example 8); assay type: biochemical; conditions: prodrug 0.25-5.0 mM
[5] = Conversion of Hipp-Asp by purified HCPB mutants, 30 minutes, HPLC (Example 17); assay type: biochemical; conditions: 0.5 mM substrate, 30 minutes at 37° C.
Method in brief: as §4

[6] = Conversion of Hipp-Arg by periplasmic shockate of HCPB mutants, 24 h (Example 18); assay type: biochemical; conditions: shockate concentration in reaction mixture 50 %; 24 h at 37° C.
Experimental: The activity of [G251T,D253K]HCPB was measured using the assay conditions described in Example 17 but using either 50 μl of a neat or 1 in 10 or 1 in 100 dilution of [G251T,D253K]HCPB crude E.coli periplasmic shockate (shockate) sample in place of purified enzyme. Samples were incubated for 24 h at 37° C. […] For other HCPB mutants, the reaction volume was 250 μl and contained 125 μl of neat shockate or 1 in 50 dilution of shockate. The shockate samples were prepared as described in Example 16. The amount of Hippuric acid produced in 24 h was quantified by HPLC as described in Example 17 and the results are shown in Table 6 and are expressed as the percentage conversion of substrate into product in 24 h at 37° C.

[7] = test system: LoVo colorectal tumour cells
[8] = Km and kcat of HCPB mutants with Hipp-Glu (Example 7); assay type: biochemical; conditions: Hipp-Glu 0.25-8.0 mM; pH 7.5; 5 h at 37° C.
Method in brief: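 Hipp-Glu (0.25-8.0 mM) or Hipp-Asp (0.25-5.0 mM) in 0.025 M Tris-HCl, pH 7.5, was incubated with the mutant enzymes for 5 h at 37° C. Reactions were quenched with methanol/water containing 0.2% TFA, and hippuric acid was quantified by HPLC. Km and Vmax were obtained by curve fitting.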

[9] = Km and kcat of HCPB mutants with Hipp-Asp (Example 7); assay type: biochemical; conditions: Hipp-Asp 0.25-5.0 mM; pH 7.5; 5 h at 37° C.
Experimental: Hipp-Glu and Hipp-Asp were diluted in range 0.25-8.0 mM and 0.25-5.0 mM respectively in 0.025 M Tris-HCL buffer, pH 7.5. Where necessary substrate samples were adjusted to pH 7.5 with 1M NaOH.
Samples were incubated for 5 h at 37° C. Reactions were terminated by the addition of 500 μl methanol/distilled water (80/20) containing 0.2% TFA. The amount of hippuric acid produced was quantified by HPLC as described in Example 6.
Km and Vmax values were calculated using the ENZFITTER software programme (Biosoft, Perkin Elmer).

[10] = Conversion of Hipp-Arg to hippuric acid by mutant and native human CPB, HPLC assay (Example 6); assay type: biochemical; conditions: 5 hr at 37° C.; 4 μg enzyme
Experimental: as §1, §2, §3

[11] = Conversion of Hipp-Asp by periplasmic shockate of HCPB mutants, 24 h (Example 18); assay type: biochemical; conditions: shockate concentration in reaction mixture 50 %; 24 h at 37° C.
Method in brief: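 Crude E. coli periplasmic shockate of each HCPB mutant was incubated with substrate for 24 h at 37° C, as neat or diluted shockate (1 in 10 or 1 in 100 for [G251T,D253K]HCPB; 1 in 50 for other mutants). Hippuric acid formed was quantified by HPLC. Values are percent conversion of substrate to product in 24 h.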

[12] = Conversion of Hipp-Glu by purified HCPB mutants, 30 minutes, HPLC (Example 17); assay type: biochemical; conditions: 0.5 mM substrate, 30 minutes at 37° C.
Method in brief: as §4

[13] = Conversion of Hipp-Glu to hippuric acid by mutant and native human CPB, HPLC assay (Example 6); assay type: biochemical; conditions: 5 hr at 37° C.; 4 μg enzyme; 0.5 mM substrate
Experimental: as §1, §2, §3

[14] = Conversion of prodrug of Example 24 to drug of Example 25 by HCPB mutants, HPLC (Example 20); assay type: biochemical; conditions: enzyme 15 μg/ml; 0.5 mM prodrug of Example 24; 5 minutes at 37° C.
Experimental: The reaction was stopped by adding MeCN (500 μl) plus 0.2% Trifluoroacetic acid. The amount of drug produced was then quantified by HPLC.
HPLC separation was carried out as described in Example 6 except that a mobile phase of 70% MeCN, 30% distilled water and 0.1% trifluoroacetic acid was used to achieve separation of prodrug (retention time 3.8 minutes) and drug (retention time 4.9 minutes) and the compounds were detected at 260 nm. The amount of drug produced was quantified from calibration curves generated with known amounts of drug.
The amount of [Q54R,D145A,D253K]HCPB and [G251T,D253K]HCPB mutants was reduced to 0.75 μg in the reaction mixture.

[15] = Activity against Hipp-Arg in crude E. coli periplasmic shockate relative to mature HCPB (Example 16); assay type: biochemical
Description: A number of other mutant HCPBs have been constructed in a similar manner to the methods described in Reference Examples 7 and 8, and Examples 12, 13, 14 and 15. In each case oligos were constructed to introduce specific changes in the gene sequence by methods similar to those described above. In some cases additional mutations were identified upon complete sequencing of the mutated gene, and these were presumably introduced during the PCR reactions. Mutants with enzyme activity against substrate analogues (see Example 18 below) have been identified, and examples of these are given in Table 4 below. […] This material is subsequently referred to as periplasmic shockate or shockate and is prepared by the following procedure.
1. A single colony was used to inoculate 75 ml of L-broth nutrient media containing 10 μg/ml tetracycline and arabinose to a final concentration of 0.01% (w/v). […]
The activity of [G251T,D253K]HCPB was measured using the assay conditions described in Example 17 but using either 50 μl of a neat or 1 in 10 or 1 in 100 dilution of [G251T,D253K]HCPB crude E.coli periplasmic shockate (shockate) sample in place of purified enzyme. […] The amount of Hippuric acid produced in 24 h was quantified by HPLC as described in Example 17 and the results are shown in Table 6 and are expressed as the percentage conversion of substrate into product in 24 h at 37° C.

O=C(O)CCC(=O)Oc1ccc(N(CCCl)CCCl)cc1
melting point: 98 to 100 °C

B1: D253K HCPB: mature HCPB with aspartate 253 changed to lysine, C-terminal (His)6-c-myc tag (protein, UniProt P15086 111-417, looked up, variant D253K)
Carboxypeptidase B: ATGHSYEKYNKWETIEAWTQQVATENPALISRSVIGTTFEGRAIYLLKVGKAGQNKPAIFMDCGFHAREWISPAFCQWFVREAVRTYGREIQVTELLDKLDFYVLPVLNIDGYIYTWTKSRFWRKTRSTHTGSSCIGTDPNRNFDAGWCEIGASRNPCDETYCGPAAESEKETKALADFIRNKLSSIKAYLTIHSYSQMMIYPYSYAYKLGENNAELNALAKATVKELASLHGTKYTYGPGATTIYPAAGGSKDWAYDQGIRYSFTFELRDTGRYGFLLPESQIRATCEETFLAIKYVASYVLEHLY
modifications: (His)6-c-myc tag
Hipp-Glu (% conversion) [1]: 7.4%
Hipp-Asp (% conversion to Hippuric acid) [2]: 78%
Hipp-Arg (% conversion) ([3]; enzyme 2.5 μg/ml): 0%
Hipp-Arg (% conversion) ([3]; enzyme 25 μg/ml): 0%
kcat, glutamic acid prodrug [4]: 0.016 s⁻¹
Vmax, glutamic acid prodrug ([4]; enzyme 0.25 mg/ml): 0.000117 mM/s
Hipp-Asp (% conversion) ([5]; enzyme 2.5 μg/ml): 2.9%
Hipp-Asp (% conversion) ([5]; enzyme 25 μg/ml): 22%
Hipp-Arg (% conversion) [6]: 0%
cytotoxicity of the glutamic acid prodrug with enzyme added ([7]; 100 μg enzyme added to assay wells containing glutamic acid prodrug): comparable to that of the active drug
toxicity of prodrug of Example 21 with enzyme added ([7]; 2.4 to 11.75 μg/ml enzyme added to prodrug 500 μM, FIG. 16): matched that seen with 200 μM of the active drug
Km [8]: 5.3 mM
kcat, Hipp-Glu [8]: 3.8 s⁻¹
Km [9]: 2.7 mM
kcat, Hipp-Asp [9]: 0.26 s⁻¹
Hipp-Arg (% conversion to Hippuric acid) [10]: <2%
Hipp-Asp (% conversion) [11]: 2.0%
Hipp-Glu (% conversion) ([12]; enzyme 2.5 μg/ml): 14.6%
Hipp-Glu (% conversion) ([12]; enzyme 25 μg/ml): 79%
Hipp-Glu (% conversion to Hippuric acid) [13]: 91%
Prodrug Hydrolysis (%) [14]: 70.4%
drug concentration at end of reaction [14]: 0.352 mM

B2: C288S: HCPB mutant with C288S (protein, UniProt P15086 111-417, looked up, variant C288S)
Carboxypeptidase B: B1 Carboxypeptidase B with K253D, C288S
Hipp-Arg, activity relative to mature HCPB [15]: c (activity 75% of mature HCPB (described in Reference Examples 7 and 8))

B3: C288A: HCPB mutant with C288A (protein, UniProt P15086 111-417, looked up, variant C288A)
Carboxypeptidase B: B1 Carboxypeptidase B with K253D, C288A
Hipp-Arg, activity relative to mature HCPB [15]: d (activity 25% of mature HCPB (described in Reference Examples 7 and 8))
